Our source for the Kd values is publication PMC2970552, “Structural Studies of the Tandem Tudor Domains of Fragile X Mental Retardation Related Proteins FXR1 and FXR2” (PLoS ONE, 2010).

One assay has as its target FXR2 Tudor domains (Homo sapiens, UniProt P51116). The assay can be described thus: Fluorescence polarization binding of histone peptides to FXR2 tandem Tudor domains. The note with it: bound printed in mM in the cell, fluoresceinated peptide 100 nM, 20 mM Tris-Cl pH 8.0, 50 mM NaCl, 1 mM DTT, 30 min room temperature.
The next assay has as its target FXR1 Tudor domains (Homo sapiens, UniProt P51114). Nature of the assay: Fluorescence polarization binding of histone peptides to FXR1 tandem Tudor domains. The conditions noted are these: bound printed in mM in the cell, fluoresceinated peptide 100 nM, 20 mM Tris-Cl pH 8.0, 50 mM NaCl, 1 mM DTT, 30 min room temperature.
Assay [1] addresses T1, FXR2 tandem Tudor domains (amino acids 14 to 137 of Fragile X Mental Retardation Syndrome-related Protein 2) (UniProt P51116 14-137).
T1 construct: Fragile X Mental Retardation Syndrome-related Protein 2 (FXR2), amino acids 14 to 137, tandem Tudor domains; residues 13 to 136 reported for the crystal structure; Cloned in pET-28a-MHL as His6-TEV-FXR2; the purification tag was not removed from FXR2; The methods describe expression in minimal media with selenomethionine; also called FXR2 Tudor domain; NLS of FXR2; source: E. coli BL21 derivative …
The assay can be described thus: fluorescence polarisation; fluoresceinated peptide at 100 nM; FXR1 (stock 1.03 mM) or FXR2 (stock 2.4 mM) in serial twofold dilutions from 1/2 to 1/1024; 20 mM Tris-Cl pH 8.0, 50 mM NaCl, 1 mM DTT; room temperature, 30 minutes. The conditions noted are these: both partners purified.

In assay [2] the target is T2, FXR1 tandem Tudor domains (amino acids 2 to 132 of Fragile X Mental Retardation Syndrome-related Protein 1) (UniProt P51114 2-132).
T2 construct: Fragile X Mental Retardation Syndrome-related Protein 1 (FXR1), amino acids 2 to 132, tandem Tudor domains; residues 4 to 122 seen in the crystal structure; Cloned in pET-28a-MHL as His6-TEV-FXR1; The methods describe expression in minimal media with selenomethionine; also called FXR1 Tudor domains; NLS of FXR1; source: E. coli BL21 derivative with pRARE, purified (Ni-NTA, Superdex 75); not …
T2 sequence (P51114 2-132): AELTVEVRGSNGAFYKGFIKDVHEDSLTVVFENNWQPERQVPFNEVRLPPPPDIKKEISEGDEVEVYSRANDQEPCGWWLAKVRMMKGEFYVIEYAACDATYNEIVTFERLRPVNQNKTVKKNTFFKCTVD
Described as above. The note with it: both partners purified.

Where no end group is shown, it is not given here. Me3 = trimethyl-lysine (Kme3); Me2 = dimethyl-lysine (Kme2)

T1 sequence (P51116 14-137): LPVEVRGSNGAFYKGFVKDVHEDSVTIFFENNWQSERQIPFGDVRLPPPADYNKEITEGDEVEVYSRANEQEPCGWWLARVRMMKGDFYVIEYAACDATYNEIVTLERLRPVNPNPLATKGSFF

For `C[C@H](N)C(=O)N[C@@H](CCCNC(=N)N)C(=O)N[C@H](C(=O)N[C@@H](CCCC[N+](C)(C)C)C(=O)N[C@@H](CCC(N)=O)C(=O)N[C@H](C(=O)N[C@@H](C)C(=O)N[C@@H](CCCNC(=N)N)C(=O)N[C@@H](CCCCN)C(=O)N[C@@H](CO)C(=O)N[C@H](C(=O)O)[C@@H](C)O)[C@@H](C)O)[C@@H](C)O` [H3K4me3], the dissociation constant Kd on FXR2 Tudor domains was more than 1 mM.
In the case of `CC(C)C[C@H](NC(=O)[C@@H](NC(=O)[C@H](CCCCN)NC(=O)[C@H](CCCNC(=N)N)NC(=O)[C@H](Cc1c[nH]cn1)NC(=O)[C@H](CCCNC(=N)N)NC(=O)[C@H](CCCCN)NC(=O)[C@H](C)NC(=O)CNC(=O)CN)C(C)C)C(=O)N[C@@H](CCCNC(=N)N)C(=O)N[C@@H](CC(=O)O)C(=O)N[C@@H](CC(N)=O)C(=O)O` [H4K20], the dissociation constant Kd on FXR1 Tudor domains is more than 1 mM.

B1: H4K20 peptide (unmethylated histone H4 peptide) (peptide)
peptide: GGAKRHRKVLRDN
modifications: also: fluorescein, position not given here
notes: histone H4 tail peptide around K20, unmethylated; also called H4K20Me0; source: synthetic peptide (Tufts University Core Services)
As for B1, binding in assay [1] was put at a Kd of 1060 ± 63 µM.

B2: H4K20me3 peptide, fluoresceinated (peptide)
peptide: GGAKRHRK(Me3)VLRD
modifications: also: fluorescein, position not given here
notes: histone H4 tail peptide, K20 trimethylated; source: synthetic peptide (Tufts University Core Services)
For B2, the values for the equilibrium dissociation constant (Kd) in assay [2] and in assay [1] were 692 ± 113 µM and 448 ± 19 µM, respectively.

B3: H4K20me2 peptide (peptide)
peptide: GGAKRHRK(Me2)VLRD
notes: histone H4 tail peptide, K20 dimethylated; source: synthetic peptide (Tufts University Core Services)
On to B3, for which, in assay [1], the Kd turned out to be 633 ± 30 µM.

B4: H3K4me3 peptide (peptide)
peptide: ARTK(Me3)QTARKST
modifications: also: fluorescein, position not given here
notes: histone H3 tail peptide, K4 trimethylated; source: synthetic peptide (Tufts University Core Services)
B4 gave a Kd in assay [2] of 660 ± 121 µM.
